Test results as given in the nanobody polyreactivity screen of Harvey et al. (2022).

Test: yeast display, Sf9 membrane polyspecificity reagent, FACS + sequencing; frameworks hold sequencing errors
Summary of the method: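 Polyreactivity labels are assigned by the sorting gate from which each nanobody was recovered. The gates were low and high (top ~1%), set on anti-HA fluorescence for expression and streptavidin fluorescence for reagent binding. Before sorting, galactose-induced (36–48 hours) yeast display cells were stained for 1 hour at 4 °C with 10% biotinylated, detergent-solubilized Sf9 membrane reagent.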

Sequence	polyreactivity (PSR sort gate)
QDQLVESGGGLDQAGGSLRLSCAASGRILIIYAMGWYRQAPGKERELVARITYTGGRTYYADSVKGRFTISRDNAKNTVYLQMTSLKPEDTAVYYCATVWSRSDSSSHYDYWGQGTQVTVSS	low polyreactivity
QDQLVESGGGLDQAGGSLRLSCAASGRTFRKYAMGWYSQAPGKERELVAAITTSGARTYYADSVKGRFTISRDNAKNTVYLQMNILKPDDTAVYYCNAVSPYDGIEFDYWGLGTQVTVSS	high polyreactivity
QDQLVESGGGLFQAGGSLRLSCAASGFTFTSYNMGWYRQAPGKEMELVAGISLSGGDTSYADSVKGRFTISRDNAKNTVYLQMNSMKPEDTAVYFCAKSYVNYAFDSWGHGTQVTVSS	high polyreactivity
QDQLVESGGGLGQAGGSLRLSCAASGSTFNNYAMGWYRQAPGKERELVAVITKRGGSTYYADSVKGRFTISRDTAKNTVHLQMNSLKPEDTAVYYCPASSLYDGYWGQGTQVTVSS	high polyreactivity
QDQLVESGGGLGQAGGTLRLSCAASGNTFTFNTMGWHRQEPGKEREVVAVISRSGGSTYYSDSVKGRITISRDNAKNTVYLQMNSLKPEDTAVYYCAAQGYWYGFVPYDYWGQGTQVTVSS	high polyreactivity
QDQLVESGGGLLQAGGSLRLSCAASGRNFVRNAMGWYRQAPGKEWELVAAISWSSGGTYYADSVKGRFTISRDNAKYTVYLQMNSLKPEDNSVYYCNARGWTLGADFGYWGQGTQVTVSS	low polyreactivity
QDQLVESGGGLLQAGGSLRLSCAASGYTFPIYAMGWYRQAPGKERELVAGISKNGGSTYYADSVKGRFTISRDNAKNTVYLQMNSLKPEDTEVYYCNASAWGRPYYRGSYFVFPGYEYWGQGTQVTVSS	low polyreactivity
QDQLVESGGGLVPAGGSLRLSCAASGGILPQYAMGWYRQAPGKERELVAAITRGGARTYYADSVKGRFTISRDNAKNTVYLQMTSLKPEDTAVYYCAARGPGYQLYDYWGQGTQVTVSS	high polyreactivity
QDQLVESGGGLVQAGASLRLSCAASGNIFANAMGWYRQAPGKQRELVAAISRSGGRTYYADSVKGRFTISRDNANNTVYLQMKSLIPEDTAVSYCNKAAYNYYLYGYWGQGTQVTVSS	high polyreactivity
QDQLVESGGGLVQAGASLRLSCAASGRISYYYTMGWYRQAPGKERELVAAISWSGGTTYYADSVKGRFTISRDNAKNTVYLQMNSLKPDDTAVYYCAAREYYTDVHGTRRYDYWGQGTQVTVSS	low polyreactivity
QDQLVESGGGLVQAGCSLRISCAASGRTFGVYAMGWYRQAPGKERELVAAINRSGTRTYYADSVKGRFTISRDHAKNTVYLPMNSLKPEDTAVYYCAASWYPGSRNYDYWGQGTQVTVSS	high polyreactivity
QDQLVESGGGLVQAGCSLRLSCAASGRIFSWYTMGWYRPAPGKERELVAVITSGGTTKYADSVKGRITISRDNAKNTVYLQMNSLKPEDTAVYYCNVAGRDYAVRWGSFDYWGQGTQVTVSS	low polyreactivity
QDQLVESGGGLVQAGGILRLSCAASGITFSYYTMGWYSQAPGKERELVAGITRSGSTYYADSVKGRFTISRDNAKNTVYLQMNSLKPEDTAVYYCAAEIYAFSGLYYYCGQGTQVTVSS	high polyreactivity
QDQLVESGGGLVQAGGRLRLSCAASGSIFVRNFMGWYRQAPGKERELVPAISWNGGSTFYADSVKWRFTISRDNAKNTVYLQMNSLKPEETAVYYCATRYGRHGWFYLYDYWGQGTQVTVSS	low polyreactivity
QDQLVESGGGLVQAGGSLLLSCAASGGIFRFKAMGWYRQARGKERELVAAIIRGGSTYYADSVKGRFTISRDNAKNTVYLQMISLKPEDTAVYDCAADYEYRTKTRDGYYCGQGTQVTVSS	low polyreactivity
QDQLVESGGGLVQAGGSLPLSCAASGLTFDYYVMGGYRQAPGKERELVATISWSGDITYYADSVKGRFTISRDNAKNTVYLQMNSLKPEDTAVYYCAADPYSWREGGYWGQGTQVTVSS	low polyreactivity
QDQLVESGGGLVQAGGSLRFSCAASGRIFTYYTMGWYRQAPGKERELVARITFSAGRTYYADSVKGRFTISRDNAKNTVYLQMNSLKPEDTAVYYCAARSYHYRNYYWGQGTQVTVSS	high polyreactivity
QDQLVESGGGLVQAGGSLRIICAASGSIVVTNAMGWYRQAPGKVRELVAAMSGRADSTYADSVKGRFTISRDNAKNTVYLQMNSLKPEDTAVDYCAAKVRGWHYYYCGQGTQVTVSS	low polyreactivity
QDQLVESGGGLVQAGGSLRISCAASGRIFYYYGMGWYRQAPGKEWELVAAITSDGDTNYADSVKGRLTISRDNAKNTVYLQMNSLKPADTAVYYCAGKWDWGYWRGFQYGFNYWGQGTQVTVSS	low polyreactivity
QDQLVESGGGLVQAGGSLRLICAASGRIFGVNAMGWYRQAPGKERELVAVISSGGSTYYADSVKGRFTISRDNAKNTVYLQMNSLKPEDTAVYYCAAEIYFFVSYDYWGQGTQVTVSS	low polyreactivity
QDQLVESGGGLVQAGGSLRLICAASGRIFVYYAMGWYRQAPGKERVLVATISSGGSTYYADSVKGRFTISRDNAKNTVYLQMNSLKPEDTAVYYCAADTDNRDLAYYYKGDYWGQGTQVTVSS	low polyreactivity
QDQLVESGGGLVQAGGSLRLICAASGRILTSYAMGWYRQAPGKERELVAAISGSSASTYYADSVKGRFTISRDNAKNTVYLQMNSLKPEDTAVYYCAAYKYDYRVDTGYDYWGQGTQVTVSS	low polyreactivity

Sequence	polyreactivity (PSR sort gate)
QDQLVESGGGLVQAGGSLRLICAASGRSLIHYAMGWYRQAPGKERELVASMTYSGGSTYYADSVKGRFTISRDNAKMTVYLQMNSLKPEDTAVYYCAATLGNRWFHYNYWGQGTQVTVSS	low polyreactivity
QDQLVESGGGLVQAGGSLRLICAASGRTFTFYAMGWSRQAPGKERELVAAIRRGGSTNYADSVKGRFTISRDNAKNTVYLQMNSLKPEDTAVYYCNKRVWYPYWTLDYWGQGTQVTVSS	low polyreactivity
QDQLVESGGGLVQAGGSLRLICAASGRTFYQYVMGWYRQAPGKERELVAAIRSGGNTYYADSVKGRFTISRDNAKNTVYLQMNSLKPEDTAVYYCAVQRGYYRYRLGRYGYDYWGQGTQVTVSS	high polyreactivity
QDQLVESGGGLVQAGGSLRLICAASGSIFEPYVMGWYRQAPGKERELVAAIRQTGGSTYYADSVKGRFTISRDNAKNTVYLQMNSLKPEDTAVYYCNAEQNPSGLYDYRGVEGEMGYWGQGTQVTVSS	low polyreactivity
QDQLVESGGGLVQAGGSLRLICAASGSTLPRYTMGWYRQAPGKERELVAAISFSGSSTYYADSVKGRFTISRDNAKNTVYLQMNSLKPEDTAVYYCRYGYNYWGQGTQVTVSS	high polyreactivity
QDQLVESGGGLVQAGGSLRLRCADYGSTFYYYAMGWYRQAPGKERELVAVITRGGGTYYADSVKGRFTISRDNAKNTVYLQMNSLKPEDTAVYYCNARQRSSTRKGYNYWGQGTEVTVSS	high polyreactivity
QDQLVESGGGLVQAGGSLRLSCAASAFIFSSYAMGWYRQAPGKERELVAAITVRAGRTYYADSVKGRFTISRDNAKYTVYLEMNSLKPEDSAVYYCAADSGLWGYYYWGQGTQVTVSS	high polyreactivity
QDQLVESGGGLVQAGGSLRLSCAASGFIFALYAMGWYRQAPGKERELVAAINWSGGRTYYADSVKGRFTISRDNAKNTVYLQMNSLKPEDTAVYYCNRRAFSPYAANYYYWGQGTQVTVSS	high polyreactivity
QDQLVESGGGLVQAGGSLRLSCAASGFIFPIYAMGWYRQAPGKERELVAGISGSGTSTYYADSVKGRFTISRDNAKNTVYFLMNSLKPEDTAVYYCNILWRGAARTRWDRGYWGLGTQVTVSS	high polyreactivity
QDQLVESGGGLVQAGGSLRLSCAASGFIFWFYAMGWYRQAPGKERELVASISARGARTYYADSVKGRFTISRDNAKNTVYLQMNSLKPEDTAVYYCATTSPVWWRADDYWGQGTQVTVSS	high polyreactivity
QDQLVESGGGLVQAGGSLRLSCAASGFILKPNAMGWYRQAPGKERELVAAISWSSGSPDYADSVKGRFTISRDNAKNTVYLQMNSLKPEDTAVYYCAADYFVYPDDWYDYWGQGTQVTVSS	low polyreactivity
QDQLVESGGGLVQAGGSLRLSCAASGFTFFPYAMGWYRQAPGKERELVAGINDGGSTNYADSVKGRFTISRDNAKNTVYLQLNSLKPEDTAVYYCNADTPLSGGSSMGYWGQGTQVTVSS	low polyreactivity
QDQLVESGGGLVQAGGSLRLSCAASGFTFGSYAMGWYRQAPGKERELVAAISSNGGNTYYADSVKGRFTISRDNAKNTVYLQMNSLKPEDTAVYYCAARYPSGTRKWYGYWGQGTQVTVSS	high polyreactivity
QDQLVESGGGLVQAGGSLRLSCAASGFTFGYYVMGWYRQAPGKERELVAAITQRGGSTYADSVKGRFTISRDNAKNTVYLQMNSLKPEDTAVYYCAAPIYNGYASWQVYYWGQGTQVTVSS	high polyreactivity
QDQLVESGGGLVQAGGSLRLSCAASGFTFQDYAMGWYRPAPGKERELVAAISTSDGNTYYADSVKGRFTISRDNAKNTVYLQMNSLKPEDTAVYYCAAQRNYGWVKFYYWGQGTQVTVSS	high polyreactivity
QDQLVESGGGLVQAGGSLRLSCAASGFTFSHNVMGWSRQAPGKERELVAAITWSGDGTYYADSVKGRFTISRDNAKKSVYFQMNSLKTEDTAVYYCNARYGKEYDYWGQGTQVTVSS	low polyreactivity
QDQLVESGGGLVQAGGSLRLSCAASGFTFYFYAMGWYRQAPGKERELVDAISRSGSRTYYADSVKGRFTISRDNAKNSVYLQMNILKPEDTAVYYCARVRPRGLYFVLHYDYWGQGTQVTVSS	high polyreactivity
QDQLVESGGGLVQAGGSLRLSCAASGFTFYYNAMVLYRQAPGKERELVASISSNGTSTYYADSVKGRFTISLDNEKNTVYLHMNILKPEDTAVHYCNVDIFDPRTYVYWGQGTQVTVSS	low polyreactivity
QDQLVESGGGLVQAGGSLRLSCAASGFTIQAYAMGWYRQAPGKERELVATISKSGGRTYYADSVKGRFTISRDNAKNTVYLQMNSLKPEDTAVYYCNKRVSGRHYDYWGQGTQVTVSS	high polyreactivity
QDQLVESGGGLVQAGGSLRLSCAASGGIFLGNAMGWYRQAPGKERELVAAISFSGGSTYYADSVKGRFTISRDNAKNTVYLQMNSLKPEDTAVYYCAAAWNRGKYNYYYWGQGTQVTVSS	high polyreactivity
QDQLVESGGGLVQAGGSLRLSCAASGGNFYGNAMGWYRQAPGKERELVATISRRGGSTYYADSVKGRFTISRDNAKNSVYLQMNSLKPEDTAVYYCAADARSSYYTKRFDYWGQGTQVTVSS	high polyreactivity
